T1: murine ENTPD3 expressed on HEK293T cells (mouse, UniProt Q8BFW6 1-529)
T1 construct: Transiently transfected HEK293T cells (vector with eGFP behind a P2A site); also called mENTPD3; mouse ENTPD3
T1 sequence: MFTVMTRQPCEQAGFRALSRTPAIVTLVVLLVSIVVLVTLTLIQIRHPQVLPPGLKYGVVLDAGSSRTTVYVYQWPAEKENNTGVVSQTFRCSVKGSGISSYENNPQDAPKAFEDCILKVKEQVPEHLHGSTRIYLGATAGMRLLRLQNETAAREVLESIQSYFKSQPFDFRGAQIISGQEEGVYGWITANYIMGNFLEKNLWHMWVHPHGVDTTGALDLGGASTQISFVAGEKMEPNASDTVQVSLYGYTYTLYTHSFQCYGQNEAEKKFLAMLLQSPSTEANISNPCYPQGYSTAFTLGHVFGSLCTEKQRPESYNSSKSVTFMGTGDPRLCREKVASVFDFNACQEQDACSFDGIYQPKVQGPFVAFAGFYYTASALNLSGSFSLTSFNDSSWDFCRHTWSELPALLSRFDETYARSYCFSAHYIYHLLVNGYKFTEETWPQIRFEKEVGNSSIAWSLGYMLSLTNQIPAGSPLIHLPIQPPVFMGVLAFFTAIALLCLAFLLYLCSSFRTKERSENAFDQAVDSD

T2: human ENTPD3 (Ectonucleoside triphosphate diphosphohydrolase 3) expressed on cells (human, UniProt O75355 1-529)
T2 construct: also called hENTPD3; huENTPD3
T2 sequence: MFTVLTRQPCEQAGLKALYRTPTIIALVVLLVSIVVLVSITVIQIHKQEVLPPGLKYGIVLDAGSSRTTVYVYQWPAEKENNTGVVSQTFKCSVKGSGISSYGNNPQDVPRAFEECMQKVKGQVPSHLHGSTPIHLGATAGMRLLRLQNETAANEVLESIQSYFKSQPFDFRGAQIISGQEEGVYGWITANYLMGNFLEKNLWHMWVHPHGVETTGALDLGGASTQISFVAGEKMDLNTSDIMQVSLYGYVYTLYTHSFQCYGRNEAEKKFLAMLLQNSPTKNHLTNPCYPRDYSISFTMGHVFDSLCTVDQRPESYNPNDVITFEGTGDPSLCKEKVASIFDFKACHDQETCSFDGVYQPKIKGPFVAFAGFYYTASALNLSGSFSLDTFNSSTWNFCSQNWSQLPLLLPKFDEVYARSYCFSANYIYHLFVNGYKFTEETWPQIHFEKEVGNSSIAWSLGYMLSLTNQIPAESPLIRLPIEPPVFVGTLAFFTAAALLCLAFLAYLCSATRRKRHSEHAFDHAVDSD


What was measured:
[1] = molecular target: T1, murine ENTPD3 expressed on HEK293T cells; assay: flow cytometry; soluble scFv on transfected HEK293T cells; anti-His PE
Procedure: (§1) scFv binders initially obtained by phage display cell panning were screened first for recognition of ENTPD3 expressed on cells. Therefore, soluble scFv were produced in E. coli and used to stain HEK293T cells transiently transfected with a vector expressing the recombinant protein and eGFP downstream separated by a P2A site. Secondary staining was performed by PE staining the His-Tag of soluble scFv. Cells were measured in flow cytometry for GFP (antigen expression) and PE (scFv binding).

[2] = molecular target: T2, human ENTPD3 (Ectonucleoside …); assay: as above
Procedure: as §1

[3] = molecular target: T2, human ENTPD3 (Ectonucleoside …); assay: cell-based or functional assay
[4] = molecular target: T2, human ENTPD3 (Ectonucleoside …); assay: cell-based or functional assay; remark: listed apart in the source

binding result [1] | binding result [2] | Binder | also measured
no binding | binds | hg012-C6 scFv (scFv, Soluble scFv made in E. coli, with Myc tag and His tag) scFv: EVQLVQSGGGLVQPGRSLRLSCTASGFTFGDYAMSWVRQAPGKGLEWVGFIRSKAYGGTTEYAASVKGRFTISRDDSKSIAYLQMNSLKTEDTAVYYCTRVPVVAGWYNWFDPWGQGTLVTVSSGSASAPKLEEGEFSEARVQSVLTQPPSASGTPGQRVTISCSGSSSNIGSNYVYWYQQLPGTAPKLLIYRNNQRPSGVPDRFSGSKSGNTASLTVSGLQAGDEADYYCSSYAGSNNVVFGGGTKLAVLGQPKAAPSVTLFPPSSAAAGSEQKLISEEDLSHHHHHH | –
no binding | binds | hg012-E4 scFv (scFv, Soluble scFv made in E. coli, with Myc tag and His tag) scFv: QVTLKESGGGLVQPGRSLRLSCAASGFTFDDYAMHWVRQAPGKGLEWVSGISWNSGSIGYADSVKGRFTISRDNAKNSLYLQMNSLRAEDTALYYCAKGANYDILTGYRKDNWFDPWGQGTLVTVSSGSASAPKLEEGEFSEARVDIVMTQSPATLSLSPGERATLSCRASQSVGSSLAWFQQKPGQAPRLLIYDASNRATGIPARFSGSGSGTDFTLTISSLEPEDFAVYYCQQRSNWPPYTFGQGTKLEIKRTVAAPSVAAAGSEQKLISEEDLSHHHHHH | –
no binding | binds | hg012-D3 scFv (scFv, Soluble scFv made in E. coli, with Myc tag and His tag) scFv: QVQLVQSGGGLVQPGRSLRLSCAASGFTFDDYAMHWVRQAPGKGLEWVSGISWNSGSIGYADSVKGRFTISRDNAKNSLYLQMNSLRAEDTALYYCAKGANYDILTGYEYWGQGTLVTVSSGSASAPKLEEGEFSEARVQAVVTQEPSLTVSPGETVTLTCGSSTGAVTSDHHPYWFQQKPGQVPRTLMHDTSTRYSWTPARFSGSIVGGKAALTLSGAQPEDEAEYHCFLYYSGTAIFGGGTKLTVLSQPKAAPSVTLFPPSSAAAGSEQKLISEEDLSHHHHHH | –
no binding | binds | hg012-B7 scFv (scFv, Soluble scFv made in E. coli, with Myc tag and His tag) scFv: QVQLQQSGAEVKKPGASVKVSCKASGYTFTSYAMHWVRQAPGQRLEWMGWINAGNGNTKYSQKLQGRVTITRDTSASTAYMELSSLRSEDTAVYYCARDSGYDLFDYWGQGTLVTVSSGSASAPKLEEGEFSEARVQAVVTQEPSFSVSPGGTVTLTCGLTSGSVSTTYYPSWYQQTPGQTPRTLIYKTNLRSPGVPDRFSGSILGNKAALTITGAQADDDSDYYCLLYMGSGVWVFGGGTRLTVLGQPKAAPSVTLFPPSSAAAGSEQKLISEEDLSHHHHHH | –
no binding | – | hg012-A8 scFv (scFv, Soluble scFv made in E. coli, with Myc tag and His tag) scFv: QVTLKESGGGLVQPGRSLRLSCAASGFTFDDYAMHWVRQAPGKGLEWVSGISWNSGSIGYADSVKGRFTISRDNAKNSLYLQMNSLRAEDTALYYCAKGANYDILTGYRKDNWFDPWGQGTLVTVSSGSASAPKLEEGEFSEARVLPVLTQPPSASGTPGQKVTISCSGSSSNIGSNYVFWYEQLPGAAPKLLMYSSNQRPSGVPDRFSGSKSGTSASLAISGLRSEDEADYYCAAWDDSLSGWVFGGGTKLTVLGQPKAAPSVTLFPPSSAAAGSEQKLISEEDLSHHHHHH | –
– | – | CAR 2-CD8 (antigen binding domain from binder B2, CD8 hinge) (other) QVQLVQSGGGVVQPGRSLRLSCAASGFTFSSYAMSWVRQAPGKGLEWVSAISGSGGNTNYADSVKGRFTISRDNSKNTLYLQMNSLRAEDTAVYYCAKGGSTSSGYRFDYWGQGTLVTVSSGGGGSGGGGSGGGGSQLVLTQSPSASASLGASVKLTCTLSSGHSNYAIAWHQQQPEKGPRFLMNVNRDGSYTKGDGIPDRFSGSSSGAERYLTISSLQSDDEADYYCQTWGTGVQVFGGGTKLTVLTRFVPVFLPAKPTTTPAPRPPTPAPTIASQPLSLRPEACRPAAGGAVHTRGLDFACDIYIWAPLAGTCGVLLLSLVITLYCNHRPPALEWVRSKRSRLLHSDYMNMTPRRPGPTRKHYQPYAPPRDFAAYRSASCTRVKFSRSADAPAYQQGQNQLYNELNLGRREEYDVLDKRRGRDPEMGGKPRRKNPQEGLYNELQKDKMAEAYSEIGMKGERRRGKGHDGLYQGLSTATKDTYDALHMQALPPR | Fold Change in TNF-α secretion (hIsMT/T cell co-culture 48 hrs) [3]: 521 fold, relative to the mock CD8 T cells condition; Fold Change in TNF-α secretion (hIsMT/T cell co-culture 72 hrs) [3]: 568 fold, relative to the mock CD8 T cells condition; Fold Change in IFN-γ secretion (hIsMT/T cell co-culture 48 hrs) [4]: 269 fold, relative to the mock CD8 T cells condition; Fold Change in IFN-γ secretion (hIsMT/T cell co-culture 72 hrs) [4]: 294 fold, relative to the mock CD8 T cells condition
no binding | binds | hg012-C8 scFv (scFv, Soluble scFv made in E. coli, with Myc tag and His tag) scFv: QVTLKESGGGLVQPGRSLRLSCAASGFTFDDYAMHWVRQAPGKGLEWVSGISWNSGSIGYADSVKGRFTISRDNAKNSLYLQMNSLRAEDTALYYCAKGANYDILTGYRKDNWFDPWGQGTLVTVSSGSASAPKLEEGEFSEARVDIVMTQTPSTLSASVGDRVTITCRASQTISNWLAWYQQKPGKAPKLLIYKASTLESGVPSRFSGTGSGTEFTLTISSLQPDDFATYFCQQYHSYSRTFGQGTKVDVARTVAAPSVAAAGSEQKLISEEDLSHHHHHH | –
no binding | binds | hg012-C1 scFv (scFv, Soluble scFv made in E. coli, with Myc tag and His tag) scFv: QVQLVQSGAEVKKPGESLKISCKGSGYSFTSYWIGWVRQMPGKGLEWMGIIYPGDSGTRYSPSFQGQVTISADKSISTAYLQWSSLKASNTAMYYCARQQGAGAFDIWGQGTMVTVSSGSASAPKLEEGEFSEARVQSALTQPPSASGSPGQSVTISCTGTSRDVGGYNYVSWYQQHPGKAPKLILYEVTKRPSGVPDRFSGSKSGNTASLTISGLQAEDEADYYCSSYTSSSTVVFGGGTKLTVLGQPKAAPSVTLFPPSSAAAGSEQKLISEEDLSHHHHHH | –
no binding | – | hg012-F10 scFv (scFv, Soluble scFv made in E. coli, with Myc tag and His tag) scFv: QMQLVQSGGGVVQPGRSLRLSCAASGFTFSSYGMHWVRQAPGKGLERVAVISYDGSNKYYADSVKGRFTISRDNSKNTLYLQMNSLRAEDTALYYCAKDHHPYGSSDSFDYWGQGTLVTVSSGSASAPKLEEGEFSEARVQAVVTQEPSLTVSPGGTVTLTCGSSTGAVTRGHYPYWLQQKPGQAPRTLIYDTVKKHSWTPARFSGSLVGGKAALTLSGAQPEDEADYYCLLSFIDTRYPARYVFGTGTKVTVLGQPKANPTVTLFPPSSAAAGSEQKLISEEDLSHHHHHH | –
